In patent US20210214413A1:

B1: full-length FLAG-CDHR3 Y529 N186Q (receptor)
chain: DYKDDDDKLHLILLPATGNVAENSPPGTSVHKFSVKLSASLSPVIPGFPQIVNSNPLTEAFRVNWLSGTYFEVVTTGMEQLDFETGPNIFDLQIYVKDEVGVTDLQVLTVQVTDVNEPPQFQGNLAEGLHLYIVERANPGFIYQVEAFDPEDTSRNIPLSYFLISPPKSFRMSAQGTLFSTTELDFEAGHRSFHLIVEVRDSGGLKASTELQVNIVNLNDEVPRFTSPTRVYTVLEELSPGTIVANITAEDPDDEGFPSHLLYSITTVSKYFMINQLTGTIQVAQRIDRDAGELRQNPTISLEVLVKDRPYGGQENRIQITFIVEDVNDNPATCQKFTFSIMVPERTAKGTLLLDLNKFCFDDDSEAPNNRFNFTMPSGVGSGSRFLQDPAGSGKIVLIGDLDYENPSNLAAGNKYTVIIQVQDVAPPYYKNNVYVYILTSPENEFPLIFDRPSYVFDVSERRPARTRVGQVRATDKDLPQSSLLYSISTGGASLQYPNVFWINPKTGELQLVTKVDYETTPIYILRIQATNNEDTSSVTVTVNILEENDEKPICTPNSYFLALPVDLKVGTNIQNFKLTCTDLDSSPRSFRYSIGPGNVNNHFTFSPNAGSNVTRLLLTSRFDYAGGFDKIWDYKLLVYVTDDNLMSDRKKAEALVETGTVTLSIKVIPHPTTIITTTPRPRVTYQVLRKNVYSPSAWYVPFVITLGSILLLGLLVYLVVLLAKAIHRHCPCKTGKNKEPLTKKGETKTAERDVVVETIQMNTIFDGEAIDPVTGETYEFNSKTGARKWKDPLTQMPKWKESSHQGAAPRRVTAGEGMGSLRSANWEEDELSGKAWAEDAGLGSRNEGGKLGNPKNRNPAFMNRAYPKPHPGK
B2: full-length FLAG-CDHR3 Y529 K43A (receptor)
chain: DYKDDDDKLHLILLPATGNVAENSPPGTSVHAFSVKLSASLSPVIPGFPQIVNSNPLTEAFRVNWLSGTYFEVVTTGMEQLDFETGPNIFDLQIYVKDEVGVTDLQVLTVQVTDVNEPPQFQGNLAEGLHLYIVERANPGFIYQVEAFDPEDTSRNIPLSYFLISPPKSFRMSANGTLFSTTELDFEAGHRSFHLIVEVRDSGGLKASTELQVNIVNLNDEVPRFTSPTRVYTVLEELSPGTIVANITAEDPDDEGFPSHLLYSITTVSKYFMINQLTGTIQVAQRIDRDAGELRQNPTISLEVLVKDRPYGGQENRIQITFIVEDVNDNPATCQKFTFSIMVPERTAKGTLLLDLNKFCFDDDSEAPNNRFNFTMPSGVGSGSRFLQDPAGSGKIVLIGDLDYENPSNLAAGNKYTVIIQVQDVAPPYYKNNVYVYILTSPENEFPLIFDRPSYVFDVSERRPARTRVGQVRATDKDLPQSSLLYSISTGGASLQYPNVFWINPKTGELQLVTKVDYETTPIYILRIQATNNEDTSSVTVTVNILEENDEKPICTPNSYFLALPVDLKVGTNIQNFKLTCTDLDSSPRSFRYSIGPGNVNNHFTFSPNAGSNVTRLLLTSRFDYAGGFDKIWDYKLLVYVTDDNLMSDRKKAEALVETGTVTLSIKVIPHPTTIITTTPRPRVTYQVLRKNVYSPSAWYVPFVITLGSILLLGLLVYLVVLLAKAIHRHCPCKTGKNKEPLTKKGETKTAERDVVVETIQMNTIFDGEAIDPVTGETYEFNSKTGARKWKDPLTQMPKWKESSHQGAAPRRVTAGEGMGSLRSANWEEDELSGKAWAEDAGLGSRNEGGKLGNPKNRNPAFMNRAYPKPHPGK
B3: full-length FLAG-CDHR3 Y529 R166A (receptor)
chain: DYKDDDDKLHLILLPATGNVAENSPPGTSVHKFSVKLSASLSPVIPGFPQIVNSNPLTEAFRVNWLSGTYFEVVTTGMEQLDFETGPNIFDLQIYVKDEVGVTDLQVLTVQVTDVNEPPQFQGNLAEGLHLYIVERANPGFIYQVEAFDPEDTSANIPLSYFLISPPKSFRMSANGTLFSTTELDFEAGHRSFHLIVEVRDSGGLKASTELQVNIVNLNDEVPRFTSPTRVYTVLEELSPGTIVANITAEDPDDEGFPSHLLYSITTVSKYFMINQLTGTIQVAQRIDRDAGELRQNPTISLEVLVKDRPYGGQENRIQITFIVEDVNDNPATCQKFTFSIMVPERTAKGTLLLDLNKFCFDDDSEAPNNRFNFTMPSGVGSGSRFLQDPAGSGKIVLIGDLDYENPSNLAAGNKYTVIIQVQDVAPPYYKNNVYVYILTSPENEFPLIFDRPSYVFDVSERRPARTRVGQVRATDKDLPQSSLLYSISTGGASLQYPNVFWINPKTGELQLVTKVDYETTPIYILRIQATNNEDTSSVTVTVNILEENDEKPICTPNSYFLALPVDLKVGTNIQNFKLTCTDLDSSPRSFRYSIGPGNVNNHFTFSPNAGSNVTRLLLTSRFDYAGGFDKIWDYKLLVYVTDDNLMSDRKKAEALVETGTVTLSIKVIPHPTTIITTTPRPRVTYQVLRKNVYSPSAWYVPFVITLGSILLLGLLVYLVVLLAKAIHRHCPCKTGKNKEPLTKKGETKTAERDVVVETIQMNTIFDGEAIDPVTGETYEFNSKTGARKWKDPLTQMPKWKESSHQGAAPRRVTAGEGMGSLRSANWEEDELSGKAWAEDAGLGSRNEGGKLGNPKNRNPAFMNRAYPKPHPGK
B4: full-length FLAG-CDHR3 Y529 W76A (receptor)
chain: DYKDDDDKLHLILLPATGNVAENSPPGTSVHKFSVKLSASLSPVIPGFPQIVNSNPLTEAFRVNALSGTYFEVVTTGMEQLDFETGPNIFDLQIYVKDEVGVTDLQVLTVQVTDVNEPPQFQGNLAEGLHLYIVERANPGFIYQVEAFDPEDTSRNIPLSYFLISPPKSFRMSANGTLFSTTELDFEAGHRSFHLIVEVRDSGGLKASTELQVNIVNLNDEVPRFTSPTRVYTVLEELSPGTIVANITAEDPDDEGFPSHLLYSITTVSKYFMINQLTGTIQVAQRIDRDAGELRQNPTISLEVLVKDRPYGGQENRIQITFIVEDVNDNPATCQKFTFSIMVPERTAKGTLLLDLNKFCFDDDSEAPNNRFNFTMPSGVGSGSRFLQDPAGSGKIVLIGDLDYENPSNLAAGNKYTVIIQVQDVAPPYYKNNVYVYILTSPENEFPLIFDRPSYVFDVSERRPARTRVGQVRATDKDLPQSSLLYSISTGGASLQYPNVFWINPKTGELQLVTKVDYETTPIYILRIQATNNEDTSSVTVTVNILEENDEKPICTPNSYFLALPVDLKVGTNIQNFKLTCTDLDSSPRSFRYSIGPGNVNNHFTFSPNAGSNVTRLLLTSRFDYAGGFDKIWDYKLLVYVTDDNLMSDRKKAEALVETGTVTLSIKVIPHPTTIITTTPRPRVTYQVLRKNVYSPSAWYVPFVITLGSILLLGLLVYLVVLLAKAIHRHCPCKTGKNKEPLTKKGETKTAERDVVVETIQMNTIFDGEAIDPVTGETYEFNSKTGARKWKDPLTQMPKWKESSHQGAAPRRVTAGEGMGSLRSANWEEDELSGKAWAEDAGLGSRNEGGKLGNPKNRNPAFMNRAYPKPHPGK
B5: full-length FLAG-CDHR3 Y529 N186A (receptor)
chain: DYKDDDDKLHLILLPATGNVAENSPPGTSVHKFSVKLSASLSPVIPGFPQIVNSNPLTEAFRVNWLSGTYFEVVTTGMEQLDFETGPNIFDLQIYVKDEVGVTDLQVLTVQVTDVNEPPQFQGNLAEGLHLYIVERANPGFIYQVEAFDPEDTSRNIPLSYFLISPPKSFRMSAAGTLFSTTELDFEAGHRSFHLIVEVRDSGGLKASTELQVNIVNLNDEVPRFTSPTRVYTVLEELSPGTIVANITAEDPDDEGFPSHLLYSITTVSKYFMINQLTGTIQVAQRIDRDAGELRQNPTISLEVLVKDRPYGGQENRIQITFIVEDVNDNPATCQKFTFSIMVPERTAKGTLLLDLNKFCFDDDSEAPNNRFNFTMPSGVGSGSRFLQDPAGSGKIVLIGDLDYENPSNLAAGNKYTVIIQVQDVAPPYYKNNVYVYILTSPENEFPLIFDRPSYVFDVSERRPARTRVGQVRATDKDLPQSSLLYSISTGGASLQYPNVFWINPKTGELQLVTKVDYETTPIYILRIQATNNEDTSSVTVTVNILEENDEKPICTPNSYFLALPVDLKVGTNIQNFKLTCTDLDSSPRSFRYSIGPGNVNNHFTFSPNAGSNVTRLLLTSRFDYAGGFDKIWDYKLLVYVTDDNLMSDRKKAEALVETGTVTLSIKVIPHPTTIITTTPRPRVTYQVLRKNVYSPSAWYVPFVITLGSILLLGLLVYLVVLLAKAIHRHCPCKTGKNKEPLTKKGETKTAERDVVVETIQMNTIFDGEAIDPVTGETYEFNSKTGARKWKDPLTQMPKWKESSHQGAAPRRVTAGEGMGSLRSANWEEDELSGKAWAEDAGLGSRNEGGKLGNPKNRNPAFMNRAYPKPHPGK
B6: rEC1-3 K43A (CDHR3 residues 20-345 with K43A and C345A), bacterially produced and refolded (receptor)
chain: MASDYKDDDDKLHLILLPATGNVAENSPPGTSVHAFSVKLSASLSPVIPGFPQIVNSNPLTEAFRVNWLSGTYFEVVTTGMEQLDFETGPNIFDLQIYVKDEVGVTDLQVLTVQVTDVNEPPQFQGNLAEGLHLYIVERANPGFIYQVEAFDPEDTSRNIPLSYFLISPPKSFRMSANGTLFSTTELDFEAGHRSFHLIVEVRDSGGLKASTELQVNIVNLNDEVPRFTSPTRVYTVLEELSPGTIVANITAEDPDDEGFPSHLLYSITTVSKYFMINQLTGTIQVAQRIDRDAGELRQNPTISLEVLVKDRPYGGQENRIQITFIVEDVNDNPATAGTKHHHHHH
B7: rEC1-3 N186A (CDHR3 residues 20-345 with N186A and C345A), bacterially produced and refolded (receptor)
chain: MASDYKDDDDKLHLILLPATGNVAENSPPGTSVHKFSVKLSASLSPVIPGFPQIVNSNPLTEAFRVNWLSGTYFEVVTTGMEQLDFETGPNIFDLQIYVKDEVGVTDLQVLTVQVTDVNEPPQFQGNLAEGLHLYIVERANPGFIYQVEAFDPEDTSRNIPLSYFLISPPKSFRMSAAGTLFSTTELDFEAGHRSFHLIVEVRDSGGLKASTELQVNIVNLNDEVPRFTSPTRVYTVLEELSPGTIVANITAEDPDDEGFPSHLLYSITTVSKYFMINQLTGTIQVAQRIDRDAGELRQNPTISLEVLVKDRPYGGQENRIQITFIVEDVNDNPATAGTKHHHHHH

Experiments:
[1] = molecular target: rhinovirus C15 virus (recombinant RV-C isolate C15, sucrose purified) (rhinovirus C15); assay: IP (α-His mAb) of refolded bacterial protein (100 pmol) with C15 virus (10^7 PFUe), Western blot
[2] = molecular target: rhinovirus C15 virus (recombinant RV-C isolate C15, sucrose purified) (rhinovirus C15); assay: IP (α-CDHR3 mAb) of transfected HeLa cell lysate reacted with C15 virus, Western blot
[3] = molecular target: rhinovirus C15 virus (recombinant RV-C isolate C15, sucrose purified) (rhinovirus C15); assay: IP of CDHR3 with C15 virus, Western blot; multiple experiments and CDHR3 contexts
[4] = molecular target: rhinovirus C15 virus (recombinant RV-C isolate C15, sucrose purified) (rhinovirus C15); assay: IP (α-His mAb) of refolded bacterial protein (100 pmol) with C15 virus (10^7 PFUe), Western blot; remark: listed apart in the source

Row | Molecule | virus-binding efficiency (Binding % relative to positive control) [1] [%] | Binding % (C15 signal normalized to CDHR3 signal, relative to WT) [2] [%] | further results
1 | rEC1 (FLAG-CDHR3 EC1-His, CDHR3 residues 20-130), bacterially produced and refolded (receptor) | 100 |  | 
2 | rEC1+3(Δ2) (FLAG-CDHR3 EC1+3(Δ2), residues 20-345 Δ129-231 with C345A), bacterially produced and refolded (from UniProt Q6ZTQ4 20-344) (receptor) | 68 |  | 
3 | rEC1-3 (FLAG-CDHR3 EC1-3-His, CDHR3 residues 20-345 with C345A), bacterially produced and refolded (from UniProt Q6ZTQ4 20-344) (receptor) | 61 |  | 
4 | rEC1-2 (FLAG-CDHR3 EC1-2-His, CDHR3 residues 20-237), bacterially produced and refolded (from UniProt Q6ZTQ4 20-237) (receptor) | 87 |  | 
5 | B1 |  | 19 | 
6 | B2 |  | 46 | 
7 | B3 |  | 16 | 
8 | B4 |  |  | more virus pull-down than comparable WT sequences (% more than WT) [3]: 50 to 80
9 | B5 |  | 11 | 
10 | B6 |  |  | Binding % (C15 signal normalized to recombinant protein signal, relative to WT rEC1-3) [4]: 22%
11 | B7 |  |  | Binding % (C15 signal normalized to recombinant protein signal, relative to WT rEC1-3) [4]: 85 % of WT
